Experimental data reported in the DeepSol protein solubility set.

assay: soluble on expression in E. coli; label from the status in PepcDB or PDB records

| Sequence | soluble on expression in E. coli |
| --- | --- |
| MDPTLYCVVAVDTKLGIGKNRCLPWPALRGDMRRFRQLTTDCAPGKQNMVVMGRRTWLSIPAGCRPLAGRINVVLSRTLETPPPGAHFLASSLDAALGLARSPELAQQIDKVWVIGGGDLYREALTGPWPVRLFLTRVLHDFACDVFLSHDSLAAYARVNPKPGEQERVFQERGIFYMFETYIKVTQSSDTALPDLERPRPATPPFSETS | soluble |
| MVPQTETKAGAGFKAGVKDYRLTYYTPDYVVRDTDILAAFRMTPQPGVPPEECGAAVAAESSTGTWTTVWTDGLTSLDRYKGRCYDIEPVPGEDNQYIAYVAYPIDLFEEGSVTNMFTSIVGNVFGFKALRALRLEDLRIPPAYVKTFVGPPHGIQVERDKLNKYGRGLLGCTIKPKLGLSAKNYGRAVYECLRGGLDFTKDDENVNSQPFMRWRDRFLFVAEAIYKAQAETGEVKGHYLNATAGTCEEMMKRAVCAKELGVPIIMHDYLTGGFTANTSLAIYCRDNGLLLHIHRAMHAVIDRQRNHGIHFRVLAKALRMSGGDHLHSGTVVGKLEGEREVILGFVDLMRDDYVEKDRSRGIYFTQDWCSMPGVMPVASGGIHVWHMPALVEIFGDDACLQFGGGTLGHPWGNAPGAAANRVALEACTQARNEGRDLAREGGDVIRSACKWSPELAAACEVWKEIKFEFDTIDKL | soluble |
| MGSDKIHHHHHHMERRRWLGAMAGVCPSCGRTLEGSGVRRLCPDCYVERYGVARIPEAVKFVYCRDCGAYRYQGGWNEGLESVEDTLREYLHMVLTVRMKPTEAVEEAWVESIELVQAFAGPGVYTALVTVAGRAGGQSLVERKIITVEASQALCPRCTARSTGRGFEAEVKVRSTAGSLGRDVKTGIARVLRRSRSIAGFVVKVDENREGLDIYLTDQTAARMLAGKLRSEFSAEVKESYKLVGRQPSGRRKGRLTISVRIPEYRPGELISVEGRPHLYLGRSGRGLVTIDLDTGRERVVDTSRTGVLAGVKRYEPGARLRRMMLLSSSGDSMVFLDVDKGMQEVVDAPRGSVRPFVESMEPGRVYEVFIHGGRIYVLRETG | not soluble |
| MYRNLLNWLTILLVFPSCSGTSPTISVVCEENNVGNAIIKWETAPILKGQVKVYASTSPDFIPEENPVVTINIAKGKKTIVTNDPSQRYYYLMVFNNRYRVRVAARNVNIPGIQNFRDLGGYKSAETGKDTRWGMLYRSAQIDSIPFCSRRELKNMGIRTIIDLRSEEERHNYPQLHDEDFNVLHLPIATGNMEHILQDIRDKKIETDTIYRLVERMNRQLVTNYRKEYKELFTLLLDRNNYPVVIHCTSGKGRTGIVSALVLAALGVNEEAIMKDYRLSNDYFNIPKASRYAYKLPINSQEAITTIYSAKEDFLNAAKEQIDAEYGSVQAYLKKGIGLSAEEIERLRSILLIDNGLEHHHHHH | not soluble |
| SKRAATLTDIKHIKQLDLSDHKSLEFARDIFLFSFYMRGMSFIDLAYLRKKDLNSGFVSYSRRKTGKKLIIRWEKQMQEIIDRYGDSETQYLLPIIEREDGTEHRQYRNKMLLVNRKLKKIAARAGLTTPLTMYVARHSWASIAKTKNISIGIISEAMGHDSETTTQIYLSSIQTNQIDNANRN | not soluble |
| PERESVRHKQPKSKEKKNAEKHIPHGIKCFVHAPEKYEWRWMGDEYVHALTPNVLEMVECLKANGIRLHTAGITVGMQKGKDLVPAPALALSTEMDDHSFFDMEFSRDEALSYLARQSVTTMPDLPLGFVLATFRRRPLGFLKNLGTRANNLYPQDWRIRNLETSEDCMEAKD | not soluble |
| RRENARRFDRKQYDFVDIDECAIQTKTYPGSDHDMAQDWLQKQMMILKPKYREPLLLSLVAGLNHDEIAQALRLNHNTVATRLFRARNQLIAQQGNH | not soluble |
| MSYAYLFKYIIIGDTGVGKSCLLLQFTDKRFQPVHDLTIGVEFGARMVTIDGKQIKLQIWDTAGQESFRSITRSYYRGAAGALLVYDITRRDTFNHLTSWLEDARQHSNSNMVIMLIGNKSDLEARREVKREEGEAFAREHGLVFMETSAKTAANVEEAFIDTAKEIYRKIQEGVFDINNEANGIKLGPQHSPSSPNSPGGNATGGLGGGSGCC | not soluble |
| MGSDKIHHHHHHMSIKILQPGLFSTVQDLGRKGYEHIGFSGAGAMDQFSFKVAQLLINNDGPAIEYTLIGPTIQFNTQNTFVITGGSVNASLNNKTISMNSVILAEKGDILKIGAITKGARGYLTFGHSINVPPIAESYATHTRSSIGGFKGRKLLANDVITVKINNDFKENIGKTIHLQDDLLPENNIIHILQGPQFEAFSEEARAKIVNHPYLITEQSDRMGYRLEGDSVAPINQADIISEPVALGSVQVPNDGQPIILLNDKQTIGGYTKIATVCKFDLPKLAQMKPQDTIQFKWISFQEAVDKNREQMSLFNEILKSHQKTPIFDTSSLRHTSKKLATILKGDL | not soluble |
| MSAIENFDAHTPMMQQYLRLKAQHPEILLFYRMGDFYALFYDDAKRASQLLDISLTKRGASAGEPIPMAGIPYHAVENYLAKLVNQGESVAICEQIGDPATSKGPVERKVVRIVTPGTISDEALLQERQDNLLAAIWQDSKGFGYATLDISSGRFRLSEPADRETMAAELQRTNPAELLYAEDFAEMSLIEGRRGLRRRPLWEFEIDTARQQLNLQFGTRDLVGFGVENAPRGLCAAGCLLQYAKDTQRTTLPHIRSITMEREQDSIIMDAATRRNLEITQNLAGGAENTLASVLDCTVTPMGSRMLKRWLHMPVRDTRVLLERQQTIGALQDFTAGLQPVLRQVGDLERILARLALRTARPRDLARMRHAFQQLPELRAQLETVDSAPVQALREKMGEFAELRDLLERAIIDTPPVLVRDGGVIASGYNEELDEWRALADGATDYLERLEVRERERTGLDTLKVGFNAVHGYYIQISRGQSHLAPINYMRRQTLKNAERYIIPELKEYEDKVLTSKGKALALEKQLYEELFDLLLPHLEALQQSASALAELDVLVNLAERAYTLNYTCPTFIDKPGIRITEGRHPVVEQVLNEPFIANPLNLSPQRRMLIITGPNMGGKSTYMRQTALIALMAYIGSYVPAQKVEIGPIDRIFTRVGAADDLASGRSTFMVEMTETANILHNATEYSLVLMDEIGRGTSTYDGLSLAWACAENLANKIKALTLFATHYFELTQLPEKMEGVANVHLDALEHGDTIAFMHSVQDGAASKSYGLAVAALAGVPKEVIKRARQKLRELESIS | soluble |
| MTIAQEPTALNFECETGNYHTFCPISCVAWLYQKIEDSFFLVIGTKTCGYFLQNAMGVMIFAEPRYAMAELEEGDISAQLNDYAELKRLCEQIKRDRNPSVIVWIGTCTTEIIKMDLEGLAPKLEGEIGIPIVVARANGLDYAFTQGEDTVLAAMAHRCPDKAPVAEAEKNLEHHHHHH | soluble |
| VKIRLHTLLAVLTAAPLLLAAAGCGSKPPSGSPETGAGAGTVATTPASSPVTLAETGSTLLYPLFNLWGPAFHERYPNVTITAQGTGSGAGIAQAAAGTVNIGASDAYLSEGDMAAHKGLMNIALAISAQQVNYNLPGVSEHLKLNGKVLAAMYQGTIKTWDDPQIAALNPGVNLPGTAVVPLHRSDGSGDTFLFTQYLSKQDPEGWGKSPGFGTTVDFPAVPGALGENGNGGMVTGCAETPGCVAYIGISFLDQASQRGLGEAQLGNSSGNFLLPDAQSIQAAAAGFASKTPANQAISMIDGPAPDGYPIINYEYAIVNNRQKDAATAQTLQAFLHWAITDGNKASFLDQVHFQPLPPAVVKLSDALIATISS | soluble |
| MGFTTVAKEEKVTKVAEVFHSVAAKYDIMNDLMSGGIHRLWKRFTIDCSGARPGQRILDLGGGTGDLTAKFSRIVGDQGHVVLADINNSMLNVGRDKLRDNGIVGNVHYVQANAEELPFPDDYFDVITISFCLRNVTDKDKALRSMFRVLKPGGRLLVLEFSKPVLEPLSKVYDAYSFHLLPKMGELVANDAESYRYLAESIRMHPDQETLEGMMQDAGFENTKYYNLTGGIVALHRGLEHHHHHH | not soluble |
| MEFVKGDQVEVCSKEDGFLGSYFGATVVSKTPEGSYYKIKYKNLVSDTDQSKRLVEVISADELRPMPPKSLHVLIRCGDKVDAFDKDGWWVGEVTAVRRNIYSVYFSTTDEELEYPLYSLRKHHEWVNGSWVRQ | soluble |
